According to patent publication US20160215061A1:

Molecular target: recombinant mouse FcγRIIB expressed in NS0 cells (mouse) (UniProt P08101)
Test: SPR (Biacore); capture sample on chip, rmFcgRIIB (NSO) injected; reference Herceptin

Chain of recombinant mouse FcγRIIB expressed in NS0 cells (mouse) (P08101 40-207 limits assumed): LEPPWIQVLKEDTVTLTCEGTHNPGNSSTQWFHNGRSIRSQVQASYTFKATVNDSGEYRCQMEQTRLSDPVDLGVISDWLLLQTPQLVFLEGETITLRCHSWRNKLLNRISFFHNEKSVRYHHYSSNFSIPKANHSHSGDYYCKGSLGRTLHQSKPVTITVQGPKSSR

Fold Increase in RU vs WT IgG1: 0.5 fold
Substance: F243A/V264A Fc (SEQ ID NO: 7) (from UniProt P0DOX5 218-448)
